The target in test [1] is Recombinant human laminin‐332 (human) (UniProt Q16787). Put plainly: SPR; BIAcore 3000, 25 °C; laminin-332 immobilised on a CM5 chip (approx. 5000 RU); vWFA2 as analyte, 2.5-420 µM; running buffer 10 mM sodium phosphate pH 7.4, 150 mM NaCl; binding isotherms.
Test [2] shares this target. Put plainly: SPR; as a1, with MgCl2 added to the running buffer to 2.5 mM. On the technique in general: In SPR one partner is held on a chip, and binding of the other changes the refractive index at the surface.

From publication PMC7137805 come the findings set out here.

The Kd is a measure of binding affinity in units of concentration. As for “untagged vWFA2 (vWFA2 lacking any tag residues) of murine type VII collagen (from UniProt Q63870 1048-1238) (domain or fragment)”, the Kd in test [1] is 440 µM.

For the substance “vWFA2 subdomain (amino acids 1048–1238) of murine type VII collagen, purified by intein cleavage (from UniProt Q63870 1048-1238) (domain or fragment)”, the Kd in test [2] was determined as 1100 µM; in test [1] it was 810 µM.
